Numbered stars: 1 amine (or outer) side, 2 acyl side, 3 side chain; on linkers, the order of the positions; unused ones are H or OH. Square brackets hold non-standard residues; d marks the D form. Side chains are listed from the residue outwards. * marks the point of attachment. C20 diacid = O=C(O)CCCCCCCCCCCCCCCCCCC(=O)*; C18 diacid = O=C(O)CCCCCCCCCCCCCCCCC(=O)*; γGlu = O=C(O)[C@H](CCC(=O)[*:2])N[*:1]
T1: human amylin 3(a) receptor (human calcitonin receptor co-expressed with RAMP-3) on BHK570/CRE-luc cells (human, UniProt P30988 25-474; O60896 24-148)
T1 sequence (looked up) 1: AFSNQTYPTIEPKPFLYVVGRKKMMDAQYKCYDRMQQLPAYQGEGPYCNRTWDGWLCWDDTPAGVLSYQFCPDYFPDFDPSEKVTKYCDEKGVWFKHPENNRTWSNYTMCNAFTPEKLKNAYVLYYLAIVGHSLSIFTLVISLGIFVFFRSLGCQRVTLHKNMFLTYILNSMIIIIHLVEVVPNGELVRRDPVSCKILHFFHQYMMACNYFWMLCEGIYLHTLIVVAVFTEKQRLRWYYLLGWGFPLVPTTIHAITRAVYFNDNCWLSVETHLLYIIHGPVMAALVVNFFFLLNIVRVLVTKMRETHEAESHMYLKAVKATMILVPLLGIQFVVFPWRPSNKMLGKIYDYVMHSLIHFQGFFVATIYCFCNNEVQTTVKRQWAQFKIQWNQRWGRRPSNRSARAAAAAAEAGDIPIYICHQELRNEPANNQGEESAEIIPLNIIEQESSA
T1 sequence (looked up) 2: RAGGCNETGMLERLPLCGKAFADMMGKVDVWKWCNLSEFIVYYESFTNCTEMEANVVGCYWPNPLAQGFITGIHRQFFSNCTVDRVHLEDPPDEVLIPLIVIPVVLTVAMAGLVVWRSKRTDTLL

T2: human calcitonin receptor on BHK570/CRE-luc cells (human, UniProt P30988 25-474)
T2 sequence (looked up): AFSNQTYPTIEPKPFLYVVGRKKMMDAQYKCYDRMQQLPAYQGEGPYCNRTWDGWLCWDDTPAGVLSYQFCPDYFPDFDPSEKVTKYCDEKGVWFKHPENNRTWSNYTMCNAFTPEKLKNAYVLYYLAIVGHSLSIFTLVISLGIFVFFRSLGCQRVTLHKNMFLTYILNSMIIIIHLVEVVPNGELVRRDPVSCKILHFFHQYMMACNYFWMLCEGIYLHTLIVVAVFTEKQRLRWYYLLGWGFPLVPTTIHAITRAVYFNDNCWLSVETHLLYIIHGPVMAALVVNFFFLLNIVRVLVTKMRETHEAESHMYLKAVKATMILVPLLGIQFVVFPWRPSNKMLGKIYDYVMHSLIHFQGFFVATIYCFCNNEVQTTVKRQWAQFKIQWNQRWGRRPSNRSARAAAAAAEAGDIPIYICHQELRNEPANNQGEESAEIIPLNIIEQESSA


Tests used:
[1] = biological target: T1, human amylin 3(a) receptor (human …); test: cell-based or functional assay
[2] = biological target: T2, human calcitonin receptor on …; test: cell-based or functional assay

| Binder | hAmylin-R funct. EC50 (pM), tested with HSA [1] | hCTR funct. EC50 (pM), tested with HSA [2] |
| --- | --- | --- |
| {C20 diacid-γGlu}-ASELSTAALGRLS[dE]ELHELATLPRTETGSGSP-NH2 (SMILES CC(C)C[C@H](NC(=O)[C@H](C)NC(=O)[C@H](C)NC(=O)[C@@H](NC(=O)[C@H](CO)NC(=O)[C@H](CC(C)C)NC(=O)[C@H](CCC(=O)O)NC(=O)[C@H](CO)NC(=O)[C@H](C)NC(=O)CC[C@H](NC(=O)CCCCCCCCCCCCCCCCCCC(=O)O)C(=O)O)[C@@H](C)O)C(=O)NCC(=O)N[C@@H](CCCNC(=N)N)C(=O)N[C@@H](CC(C)C)C(=O)N[C@@H](CO)C(=O)N[C@H](CCC(=O)O)C(=O)N[C@@H](CCC(=O)O)C(=O)N[C@@H](CC(C)C)C(=O)N[C@@H](Cc1c[nH]cn1)C(=O)N[C@@H](CCC(=O)O)C(=O)N[C@@H](CC(C)C)C(=O)N[C@@H](C)C(=O)N[C@H](C(=O)N[C@@H](CC(C)C)C(=O)N1CCC[C@H]1C(=O)N[C@@H](CCCNC(=N)N)C(=O)N[C@H](C(=O)N[C@@H](CCC(=O)O)C(=O)N[C@H](C(=O)NCC(=O)N[C@@H](CO)C(=O)NCC(=O)N[C@@H](CO)C(=O)N1CCC[C@H]1C(N)=O)[C@@H](C)O)[C@@H](C)O)[C@@H](C)O) [[N-terminal(C20 diacid-gGlu), des1, 15e, 30S, 31G]mimylin] | 94 pM | 23 pM |
| {C20 diacid-γGlu}-ASELSTAALGRLSAELHELATLPRTETGTGTP-NH2 (SMILES CC(C)C[C@H](NC(=O)[C@H](C)NC(=O)[C@H](C)NC(=O)[C@@H](NC(=O)[C@H](CO)NC(=O)[C@H](CC(C)C)NC(=O)[C@H](CCC(=O)O)NC(=O)[C@H](CO)NC(=O)[C@H](C)NC(=O)CC[C@H](NC(=O)CCCCCCCCCCCCCCCCCCC(=O)O)C(=O)O)[C@@H](C)O)C(=O)NCC(=O)N[C@@H](CCCNC(=N)N)C(=O)N[C@@H](CC(C)C)C(=O)N[C@@H](CO)C(=O)N[C@@H](C)C(=O)N[C@@H](CCC(=O)O)C(=O)N[C@@H](CC(C)C)C(=O)N[C@@H](Cc1c[nH]cn1)C(=O)N[C@@H](CCC(=O)O)C(=O)N[C@@H](CC(C)C)C(=O)N[C@@H](C)C(=O)N[C@H](C(=O)N[C@@H](CC(C)C)C(=O)N1CCC[C@H]1C(=O)N[C@@H](CCCNC(=N)N)C(=O)N[C@H](C(=O)N[C@@H](CCC(=O)O)C(=O)N[C@H](C(=O)NCC(=O)N[C@H](C(=O)NCC(=O)N[C@H](C(=O)N1CCC[C@H]1C(N)=O)[C@@H](C)O)[C@@H](C)O)[C@@H](C)O)[C@@H](C)O)[C@@H](C)O) [[N-terminal(C20 diacid-gGlu), des1, 30T, 31G, 32T]mimylin] | 134 pM | 56 pM |
| {C20 diacid-γGlu}-ASELSTAALGRLSAELHELATYPRTETGSGSY-NH2 (SMILES CC(C)C[C@H](NC(=O)[C@H](C)NC(=O)[C@H](C)NC(=O)[C@@H](NC(=O)[C@H](CO)NC(=O)[C@H](CC(C)C)NC(=O)[C@H](CCC(=O)O)NC(=O)[C@H](CO)NC(=O)[C@H](C)NC(=O)CC[C@H](NC(=O)CCCCCCCCCCCCCCCCCCC(=O)O)C(=O)O)[C@@H](C)O)C(=O)NCC(=O)N[C@@H](CCCNC(=N)N)C(=O)N[C@@H](CC(C)C)C(=O)N[C@@H](CO)C(=O)N[C@@H](C)C(=O)N[C@@H](CCC(=O)O)C(=O)N[C@@H](CC(C)C)C(=O)N[C@@H](Cc1c[nH]cn1)C(=O)N[C@@H](CCC(=O)O)C(=O)N[C@@H](CC(C)C)C(=O)N[C@@H](C)C(=O)N[C@H](C(=O)N[C@@H](Cc1ccc(O)cc1)C(=O)N1CCC[C@H]1C(=O)N[C@@H](CCCNC(=N)N)C(=O)N[C@H](C(=O)N[C@@H](CCC(=O)O)C(=O)N[C@H](C(=O)NCC(=O)N[C@@H](CO)C(=O)NCC(=O)N[C@@H](CO)C(=O)N[C@@H](Cc1ccc(O)cc1)C(N)=O)[C@@H](C)O)[C@@H](C)O)[C@@H](C)O) [[N-terminal(C20 diacid-gGlu), des1, 23Y, 30S, 31G, 33Y]mimylin] | 93 pM | 71 pM |
| Ac-ASELSTAALGRLSAK([γGlu-C20 diacid])LHELATLPRTETGSGSP-NH2 [[N-terminal(acetyl), des1, 16K(C20 diacid-gGlu), 30S, 31G]mimylin] | 100 pM | 44 pM |
| {C20 diacid-γGlu}-ASGLSTAALGRLSAELHELATYPRTETGSGSP-NH2 [[N-terminal(C20 diacid-gGlu), des1, 4G, 23Y, 30S, 31G]mimylin] | 71 pM | 45 pM |
| {C18 diacid-γGlu}-ASELSTAALGRLSAELHELATLPRTETGSGPP-NH2 (SMILES CC(C)C[C@H](NC(=O)[C@H](C)NC(=O)[C@H](C)NC(=O)[C@@H](NC(=O)[C@H](CO)NC(=O)[C@H](CC(C)C)NC(=O)[C@H](CCC(=O)O)NC(=O)[C@H](CO)NC(=O)[C@H](C)NC(=O)CC[C@H](NC(=O)CCCCCCCCCCCCCCCCC(=O)O)C(=O)O)[C@@H](C)O)C(=O)NCC(=O)N[C@@H](CCCNC(=N)N)C(=O)N[C@@H](CC(C)C)C(=O)N[C@@H](CO)C(=O)N[C@@H](C)C(=O)N[C@@H](CCC(=O)O)C(=O)N[C@@H](CC(C)C)C(=O)N[C@@H](Cc1c[nH]cn1)C(=O)N[C@@H](CCC(=O)O)C(=O)N[C@@H](CC(C)C)C(=O)N[C@@H](C)C(=O)N[C@H](C(=O)N[C@@H](CC(C)C)C(=O)N1CCC[C@H]1C(=O)N[C@@H](CCCNC(=N)N)C(=O)N[C@H](C(=O)N[C@@H](CCC(=O)O)C(=O)N[C@H](C(=O)NCC(=O)N[C@@H](CO)C(=O)NCC(=O)N1CCC[C@H]1C(=O)N1CCC[C@H]1C(N)=O)[C@@H](C)O)[C@@H](C)O)[C@@H](C)O) [[N-terminal(C18 diacid-gGlu), des1, 30S, 31G, 32P]mimylin] | 413 pM | 95 pM |
| Ac-ASELSTAALGRLSAELHK([γGlu-C20 diacid])LATLPRTETGSGSP-NH2 [[N-terminal(acetyl), des1, 19K(C20 diacid-gGlu), 30S, 31G]mimylin] | 47 pM | 22 pM |
| {C20 diacid-γGlu}-ASELSTAALGRLSAELHELATLPHTETGSGSP-NH2 (SMILES CC(C)C[C@H](NC(=O)[C@H](C)NC(=O)[C@H](C)NC(=O)[C@@H](NC(=O)[C@H](CO)NC(=O)[C@H](CC(C)C)NC(=O)[C@H](CCC(=O)O)NC(=O)[C@H](CO)NC(=O)[C@H](C)NC(=O)CC[C@H](NC(=O)CCCCCCCCCCCCCCCCCCC(=O)O)C(=O)O)[C@@H](C)O)C(=O)NCC(=O)N[C@@H](CCCNC(=N)N)C(=O)N[C@@H](CC(C)C)C(=O)N[C@@H](CO)C(=O)N[C@@H](C)C(=O)N[C@@H](CCC(=O)O)C(=O)N[C@@H](CC(C)C)C(=O)N[C@@H](Cc1c[nH]cn1)C(=O)N[C@@H](CCC(=O)O)C(=O)N[C@@H](CC(C)C)C(=O)N[C@@H](C)C(=O)N[C@H](C(=O)N[C@@H](CC(C)C)C(=O)N1CCC[C@H]1C(=O)N[C@@H](Cc1c[nH]cn1)C(=O)N[C@H](C(=O)N[C@@H](CCC(=O)O)C(=O)N[C@H](C(=O)NCC(=O)N[C@@H](CO)C(=O)NCC(=O)N[C@@H](CO)C(=O)N1CCC[C@H]1C(N)=O)[C@@H](C)O)[C@@H](C)O)[C@@H](C)O) [[N-terminal(C20 diacid-gGlu), des1, 25H, 30S, 31G]mimylin] | 185 pM | 22 pM |
| {C18 diacid-γGlu}-ASELSTAVLGRLSAELHELATLPRTETGSGSP-NH2 (SMILES CC(C)C[C@H](NC(=O)[C@H](CCC(=O)O)NC(=O)[C@H](Cc1c[nH]cn1)NC(=O)[C@H](CC(C)C)NC(=O)[C@H](CCC(=O)O)NC(=O)[C@H](C)NC(=O)[C@H](CO)NC(=O)[C@H](CC(C)C)NC(=O)[C@H](CCCNC(=N)N)NC(=O)CNC(=O)[C@H](CC(C)C)NC(=O)[C@@H](NC(=O)[C@H](C)NC(=O)[C@@H](NC(=O)[C@H](CO)NC(=O)[C@H](CC(C)C)NC(=O)[C@H](CCC(=O)O)NC(=O)[C@H](CO)NC(=O)[C@H](C)NC(=O)CC[C@H](NC(=O)CCCCCCCCCCCCCCCCC(=O)O)C(=O)O)[C@@H](C)O)C(C)C)C(=O)N[C@@H](C)C(=O)N[C@H](C(=O)N[C@@H](CC(C)C)C(=O)N1CCC[C@H]1C(=O)N[C@@H](CCCNC(=N)N)C(=O)N[C@H](C(=O)N[C@@H](CCC(=O)O)C(=O)N[C@H](C(=O)NCC(=O)N[C@@H](CO)C(=O)NCC(=O)N[C@@H](CO)C(=O)N1CCC[C@H]1C(N)=O)[C@@H](C)O)[C@@H](C)O)[C@@H](C)O) [[N-terminal(C18 diacid-gGlu), des1, 9V, 30S, 31G]mimylin] | 17 pM | 11 pM |
| Ac-ASK([γGlu-C20 diacid])LSTAALGRLSAELHELATLPRTETGSGSP-NH2 [[N-terminal(acetyl), des1, 4K(C20 diacid-gGlu), 30S, 31G]mimylin] | 72 pM | 37 pM |
| {C20 diacid-γGlu}-ASELSTAALGHLSAELHELATLPRTETGSGSP-NH2 [[N-terminal(C20 diacid-gGlu), des1, 12H, 30S, 31G]mimylin] | 230 pM | 48 pM |

Source: patent US20160272683A1 (Novo Nordisk, published 2016)
